# Laboratory results from publication PMC7321842.
# Biological target: microtubules (MTs) of porcine brain Tubulin (porcine) (UniProt P02550)
# Assay: turbidimetry
# Chain of LEM2 N-terminal domain (LEM2NTD; AA:1–208) (Q8NC56 1-208): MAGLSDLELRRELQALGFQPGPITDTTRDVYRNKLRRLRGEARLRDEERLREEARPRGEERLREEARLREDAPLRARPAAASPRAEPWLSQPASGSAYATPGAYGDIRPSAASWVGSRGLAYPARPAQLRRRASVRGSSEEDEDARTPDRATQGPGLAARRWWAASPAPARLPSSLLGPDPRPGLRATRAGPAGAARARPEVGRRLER
Substance,K (apparent) (half-maximal concentration of MT bundling by light scattering) [µM],half max (half-maximal concentration of MT bundling by light scattering) [µM]
LEM2 N-terminal domain (LEM2NTD; AA:1–208) (from UniProt Q8NC56 1-208) (domain or fragment),1.3,
"LEM2_(Mim1(S82D, S90D, S96D, Y98D, T100D, Y104D)) (from UniProt Q8NC56 1-208) (domain or fragment)",,2.82
"LEM2_(Mim2(Y122D, S134D, S138D, S139D, T147D, S166D, S174D, S175D)) (from UniProt Q8NC56 1-208) (domain or fragment)",,8.44
